Here are results for three sequences from the supplement of paper PMC5998384.

Data set [1] relates to HeLa Kyoto. Description: solubility in G1/S (NP-40 vs SDS abundance) (log2 ratio); higher = more soluble. As to conditions: cell cycle stage: G1/S.
For data set [2], the system named is HeLa Kyoto. Description: melting temperature (median over replicates), in situ; higher = more thermally stable.
Data set [3] has as its system HeLa Kyoto. Description: solubility change mitosis vs G1/S (difference of NP-40 vs SDS log2 ratios) (log2 ratio difference); higher = more soluble in mitosis.
For data set [4], the system named is HeLa Kyoto. Description: thermal stability score vs G1/S (z-score of summed log2 fold changes over temperatures); higher = more thermally stable than in G1/S.
[5] abbreviates: cell cycle stage: early G1 (4.5 h after nocodazole release).
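For melting temperature (median over replicates), in situ in this document: HeLa Kyoto cells synchronized by double thymidine or nocodazole block, proteins quantified by TMT10plex mass spectrometry, three independent biological replicates.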
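For solubility change mitosis vs G1/S (difference of NP-40 vs SDS log2 ratios) in this document: synchronized HeLa Kyoto cells (double thymidine block for G1/S, nocodazole release for mitosis), protein amounts in NP-40 versus SDS lysates quantified by mass spectrometry, three biological replicates.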
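For solubility in G1/S (NP-40 vs SDS abundance) in this document: HeLa Kyoto cells arrested at G1/S by double thymidine block, proteins quantified by TMT10plex mass spectrometry in mild NP-40 versus SDS extracts, three biological replicates.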
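For thermal stability score vs G1/S (z-score of summed log2 fold changes over temperatures) in this document: synchronized HeLa Kyoto cells, proteins quantified by TMT10plex mass spectrometry, three biological replicates, mitosis taken 0.5 h after nocodazole release, G1/S directly after double thymidine block.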

In the case of “MEPPYSLTAHYDEFQEVKYVSRCGAGGARGASLPPGFPLGAARSATGARSGLPRWNRREVCLLSGLVFAAGLCAILAAMLALKYLGPVAAGGGACPEGCPERKAFARAARFLAANLDASIDPCQDFYSFACGGWLRRHAIPDDKLTYGTIAAIGEQNEERLRRLLARPGGGPGGAAQRKVRAFFRSCLDMREIERLGPRPMLEVIEDCGGWDLGGAEERPGVAARWDLNRLLYKAQGVYSAAALFSLTVSLDDRNSSRYVIRIDQDGLTLPERTLYLAQDEDSEKILAAYRVFMERVLSLLGADAVEQKAQEILQVEQQLANITVSEHDDLRRDVSSMYNKVTLGQLQKITPHLRWKWLLDQIFQEDFSEEEEVVLLATDYMQQVSQLIRSTPHRVLHNYLVWRVVVVLSEHLSPPFREALHELAQEMEGSDKPQELARVCLGQANRHFGMALGALFVHEHFSAASKAKVQQLVEDIKYILGQRLEELDWMDAETRAAARAKLQYMMVMVGYPDFLLKPDAVDKEYEFEVHEKTYFKNILNSIRFSIQLSVKKIRQEVDKSTWLLPPQALNAYYLPNKNQMVFPAGILQPTLYDPDFPQSLNYGGIGTIIGHELTHGYDDWGGQYDRSGNLLHWWTEASYSRFLRKAECIVRLYDNFTVYNQRVNGKHTLGENIADMGGLKLAYHAYQKWVREHGPEHPLPRLKYTHDQLFFIAFAQNWCIKRRSQSIYLQVLTDKHAPEHYRVLGSVSQFEEFGRAFHCPKDSPMNPAHKCSVW [ECEL1]”, the “solubility in G1/S (log2)” value in data set [1] was -0.0684. The figures for the melting temperature in data set [2] (cell cycle stage: G1/S) and in data set [2] (cell cycle stage: mitosis) were 52.9 °C and 52.1 °C, respectively. Besides, the “solubility change mitosis (log2)” value in data set [3] is -0.124. Moreover, the thermal stability score was determined as 0.162 in data set [4] (setting [5]) and 2.03 in data set [4] (cell cycle stage: mitosis).

“MEPRAVAEAVETGEEDVIMEALRSYNQEHSQSFTFDDAQQEDRKRLAELLVSVLEQGLPPSHRVIWLQSVRILSRDRNCLDPFTSRQSLQALACYADISVSEGSVPESADMDVVLESLKCLCNLVLSSPVAQMLAAEARLVVKLTERVGLYRERSFPHDVQFFDLRLLFLLTALRTDVRQQLFQELKGVRLLTDTLELTLGVTPEGNPPPTLLPSQETERAMEILKVLFNITLDSIKGEVDEEDAALYRHLGTLLRHCVMIATAGDRTEEFHGHAVNLLGNLPLKCLDVLLTLEPHGDSTEFMGVNMDVIRALLIFLEKRLHKTHRLKESVAPVLSVLTECARMHRPARKFLKAQVLPPLRDVRTRPEVGEMLRNKLVRLMTHLDTDVKRVAAEFLFVLCSESVPRFIKYTGYGNAAGLLAARGLMAGGRPEGQYSEDEDTDTDEYKEAKASINPVTGRVEEKPPNPMEGMTEEQKEHEAMKLVTMFDKLSRNRVIQPMGMSPRGHLTSLQDAMCETMEQQLSSDPDSDPD [RIC8A]”: the “solubility in G1/S (log2)” value in data set [1] is -0.322. Also, the melting temperature in data set [2] (cell cycle stage: G1/S) amounted to 51.6 °C; in data set [2] (cell cycle stage: mitosis), 49.6 °C. The “solubility change mitosis (log2)” value in data set [3] worked out at 0.342. The thermal stability score in data set [4] (setting [5]) is 1.87; in data set [4] (cell cycle stage: mitosis), -0.505.

“MEQEPQNGEPAEIKIIREAYKKAFLFVNKGLNTDELGQKEEAKNYYKQGIGHLLRGISISSKESEHTGPGWESARQMQQKMKETLQNVRTRLEILEKGLATSLQNDLQEVPKLYPEFPPKDMCEKLPEPQSFSSAPQHAEVNGNTSTPSAGAVAAPASLSLPSQSCPAEAPPAYTPQAAEGHYTVSYGTDSGEFSSVGEEFYRNHSQPPPLETLGLDADELILIPNGVQIFFVNPAGEVSAPSYPGYLRIVRFLDNSLDTVLNRPPGFLQVCDWLYPLVPDRSPVLKCTAGAYMFPDTMLQAAGCFVGVVLSSELPEDDRELFEDLLRQMSDLRLQANWNRAEEENEFQIPGRTRPSSDQLKEASGTDVKQLDQGNKDVRHKGKRGKRAKDTSSEEVNLSHIVPCEPVPEEKPKELPEWSEKVAHNILSGASWVSWGLVKGAEITGKAIQKGASKLRERIQPEEKPVEVSPAVTKGLYIAKQATGGAAKVSQFLVDGVCTVANCVGKELAPHVKKHGSKLVPESLKKDKDGKSPLDGAMVVAASSVQGFSTVWQGLECAAKCIVNNVSAETVQTVRYKYGYNAGEATHHAVDSAVNVGVTAYNINNIGIKAMVKKTATQTGHTLLEDYQIVDNSQRENQEGAANVNVRGEKDEQTKEVKEAKKKDK [SPG20]”: the “solubility in G1/S (log2)” value in data set [1] worked out at 0.205. Also, the melting temperature in data set [2] (cell cycle stage: G1/S) was 49.8 °C; in data set [2] (cell cycle stage: mitosis) it was 50.4 °C. Moreover, in data set [3], the “solubility change mitosis (log2)” value is -0.0384. Further, the thermal stability score stood at 1.64 in data set [4] (setting [5]) and 1.92 in data set [4] (cell cycle stage: mitosis).
